According to patent publication US20170128596A1, “Peptide-Based Compounds and Their Uses for Tumor Imaging and Targeting” (Klinikum rechts der lsar der Technischen Universitaet …, priority 2014, published 2017):

Legend:
[1] = Toxicity testing in healthy and tumor-bearing BALB/c mice
Protocol: Concentrations up to 500 μg of TPP per mouse were tested in tumor-bearing mice (s.c. tumors, size 0.4 cm^3). The health status and the general behavior of mice were inspected. Animals were sacrificed on day 5 and the heart, liver, spleen, lung and kidneys examined for pathological changes using standard histological techniques.

[2] = Ex vivo biodistribution in CT26 tumor-bearing mice by NIRF quantification; set-up: species or system mouse; settings: i.v.
Protocol: Regression equation of linear regression analysis (lower panel). The concentration of TPP[Cy5.5] in organs was calculated using this regression equation. Scale bar, 5 mm.
For biodistribution tumor-bearing mice were sacrificed 12, 24 or 48 h after i.v. injection of TPP[Cy5.5]. Fluorescent signal intensities of 0.25 cm^3 tissue cubes, taken from the tumor, spleen, pancreas, liver, lung, duodenum, kidney, heart, and 0.25 ml of peripheral blood were measured as described above. Agarose-gel cubes with standardized concentrations were used to calculate the probe concentrations in the investigated tissue samples.
After the mice had been sacrificed, the contents of TPP[Cy5.5] in the tumors and organs (spleen, pancreas, liver, lung, duodenum, kidney, heart and blood) were assessed. […] Fluorescence intensities of the tissues were measured as described in the imaging procedures chapter. Quantification of the Cy5.5 contents in the defined tissue volumes was calculated using fluorescence signal intensities of standards with defined concentrations. […] Fluorescence signal intensity was measured using the same instrument settings than for the tissue specimen (FIG. 10, upper panel). […] Linear regression equation of the standards was calculated with Microsoft Excel 2007 (FIG. 10, lower panel). The concentration of TPP[Cy5.5] in organs was calculated using the regression equation.

[3] = tested on: MCF7, MDA-MB-231, T47D cells; test: Peptide uptake into human breast cancer cell lines by confocal microscopy; format: cell-based; settings: 30 min at 37° C.
Protocol: Human breast cancer cell lines (MCF7, MDA-MB-231, T47D) expressing different levels of membrane Hsp70 were incubated with CF-TPP or a scrambled peptide for 30 min at 37° C. and internalization of the peptides was imaged by confocal microscopy.

[4] = biological target: membrane-bound Heat shock protein 70 (Hsp70) on human tumor cells (human) (UniProt P0DMV8); test: flow cytometry, single cell suspension of in vivo-grown MDA-MB231 human mammary tumor
[5] = biological target: membrane-bound Heat shock protein 70 (Hsp70) on human tumor cells (human) (UniProt P0DMV8); test: flow cytometry, single cell suspension of in vivo-grown CX-2 human colon tumor
[6] = biological target: membrane-bound Heat shock protein 70 (Hsp70) on murine tumor cells (mouse) (UniProt Q61696); test: flow cytometry, single cell suspension of in vivo-grown 4T1 murine mammary tumor
[7] = biological target: membrane-bound Heat shock protein 70 (Hsp70) on human tumor cells (human) (UniProt P0DMV8); test: flow cytometry, single cell suspension of in vivo-grown HCT-116 human colon tumor
[8] = biological target: membrane-bound Heat shock protein 70 (Hsp70) on human tumor cells (human) (UniProt P0DMV8); test: flow cytometry, single cell suspension of in vivo-grown MCF-7 human mammary tumor
[9] = biological target: membrane-bound Heat shock protein 70 (Hsp70) on murine tumor cells (mouse) (UniProt Q61696); test: flow cytometry, single cell suspension of in vivo-grown CT26 murine colon tumor
[10] = biological target: membrane-bound Heat shock protein 70 (Hsp70) on human tumor cells (human) (UniProt P0DMV8); test: flow cytometry, single cell suspension of in vivo-grown A549 human lung tumor
[11] = biological target: membrane-bound Heat shock protein 70 (Hsp70) on human tumor cells (human) (UniProt P0DMV8); test: flow cytometry, single cell suspension of in vivo-grown HeLa human cervix tumor
[12] = biological target: membrane-bound Heat shock protein 70 (Hsp70) on human tumor cells (human) (UniProt P0DMV8); test: flow cytometry, single cell suspension of in vivo-grown T-47D human mammary tumor
[13] = biological target: membrane-bound Heat shock protein 70 (Hsp70) on human tumor cells (human) (UniProt P0DMV8); test: flow cytometry, single cell suspension of in vivo-grown FaDu human head & neck tumor
[14] = biological target: membrane-bound Heat shock protein 70 (Hsp70) on human tumor cells (human) (UniProt P0DMV8); test: flow cytometry, single cell suspension of in vivo-grown MIA PaCa-2 human pancreas tumor
[15] = biological target: membrane-bound Heat shock protein 70 (Hsp70) on murine tumor cells (mouse) (UniProt Q61696); test: flow cytometry, single cell suspension of CAC murine colon tumor
[16] = biological target: membrane-bound Heat shock protein 70 (Hsp70) on human tumor cells (human) (UniProt P0DMV8); test: flow cytometry, single cell suspension of in vivo-grown COLO357 human pancreas tumor
[17] = biological target: membrane-bound Heat shock protein 70 (Hsp70) on human tumor cells (human) (UniProt P0DMV8); test: flow cytometry, single cell suspension of in vivo-grown Cal-33 human head & neck tumor
[18] = biological target: membrane-bound Heat shock protein 70 (Hsp70) on murine tumor cells (mouse) (UniProt Q61696); test: flow cytometry, single cell suspension of PDAC murine pancreas tumor
[19] = biological target: membrane-bound Heat shock protein 70 (Hsp70) on human tumor cells (human) (UniProt P0DMV8); test: flow cytometry, single cell suspension of in vivo-grown Panc-1 human pancreas tumor
[20] = biological target: membrane-bound Heat shock protein 70 (Hsp70) on human tumor cells (human) (UniProt P0DMV8); test: flow cytometry, single cell suspension of in vivo-grown H-1339 human lung tumor

membrane-bound Heat shock protein 70 (Hsp70) on human tumor cells (human), sequence (P0DMV8 2-641): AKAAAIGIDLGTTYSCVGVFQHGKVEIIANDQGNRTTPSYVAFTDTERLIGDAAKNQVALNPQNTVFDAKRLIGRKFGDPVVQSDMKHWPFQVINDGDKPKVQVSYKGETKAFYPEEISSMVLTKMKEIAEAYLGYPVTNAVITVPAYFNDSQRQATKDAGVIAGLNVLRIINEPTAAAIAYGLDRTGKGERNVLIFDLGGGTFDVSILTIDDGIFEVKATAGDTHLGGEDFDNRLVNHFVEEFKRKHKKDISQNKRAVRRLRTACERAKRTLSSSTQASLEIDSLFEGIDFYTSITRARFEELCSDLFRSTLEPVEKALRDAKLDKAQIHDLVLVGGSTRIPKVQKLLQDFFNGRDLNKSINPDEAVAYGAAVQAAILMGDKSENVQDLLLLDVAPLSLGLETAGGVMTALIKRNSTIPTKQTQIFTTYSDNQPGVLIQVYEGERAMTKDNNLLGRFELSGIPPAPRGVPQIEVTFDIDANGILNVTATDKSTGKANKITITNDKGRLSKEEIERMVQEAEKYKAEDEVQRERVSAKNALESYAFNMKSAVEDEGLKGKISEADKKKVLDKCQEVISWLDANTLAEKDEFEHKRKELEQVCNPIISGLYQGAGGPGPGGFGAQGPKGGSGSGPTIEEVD
membrane-bound Heat shock protein 70 (Hsp70) on murine tumor cells (mouse), sequence (Q61696 2-641): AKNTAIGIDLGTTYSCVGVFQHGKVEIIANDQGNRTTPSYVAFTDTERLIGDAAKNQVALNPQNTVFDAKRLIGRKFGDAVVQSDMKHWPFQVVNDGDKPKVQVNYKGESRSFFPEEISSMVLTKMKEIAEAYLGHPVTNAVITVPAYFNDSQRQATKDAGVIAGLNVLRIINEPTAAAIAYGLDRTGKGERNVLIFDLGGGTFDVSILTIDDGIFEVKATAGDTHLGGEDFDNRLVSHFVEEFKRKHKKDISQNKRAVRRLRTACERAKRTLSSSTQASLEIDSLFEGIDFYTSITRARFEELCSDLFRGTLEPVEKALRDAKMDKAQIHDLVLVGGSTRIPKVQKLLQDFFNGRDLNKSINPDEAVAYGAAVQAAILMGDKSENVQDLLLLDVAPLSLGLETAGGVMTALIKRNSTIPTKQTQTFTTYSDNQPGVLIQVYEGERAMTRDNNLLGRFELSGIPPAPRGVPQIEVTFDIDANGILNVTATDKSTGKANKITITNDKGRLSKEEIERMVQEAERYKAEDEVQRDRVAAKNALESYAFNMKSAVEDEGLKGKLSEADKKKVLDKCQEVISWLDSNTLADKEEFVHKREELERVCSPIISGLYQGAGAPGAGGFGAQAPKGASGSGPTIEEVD

CC(C)C[C@H](NC(=O)[C@H](CC(C)C)NC(=O)[C@H](CC(N)=O)NC(=O)[C@H](CC(N)=O)NC(=O)[C@H](CC(=O)O)NC(=O)[C@H](CCCCN)NC(=O)[C@@H](N)[C@@H](C)O)C(=O)NCC(=O)N[C@@H](CCCNC(=N)N)C(=O)N[C@@H](Cc1ccccc1)C(=O)N[C@@H](CCC(=O)O)C(=O)N[C@@H](CC(C)C)C(=O)N[C@@H](CO)C(=O)NCC(=O)O [TPP, TKDNNLLGRFELSG]
loss of weight or change in mobility ([1]; BALB/c mice, i.v. 500 to 1050 μg): Nor did any animal exhibit any loss of weight or change in mobility | gross monitoring for toxic reactions (skin ulcerations, toxic death) ([1]; BALB/c mice, i.v. 500 to 1050 μg (25 to 50 μg/g)): did not show any toxic reactions | histological examination of heart, liver, spleen, lung and kidney ([1]; day 5 after injection): no pathological changes | side effects in tumor-bearing mice ([1]; up to 500 μg per mouse): did not exert any side effects | route of clearance [2]: cleared from the body by renal excretion

NGLTLKNDFSRLEG (scrambled control peptide)
internalization into tumor cells [3]: not internalized

cmHsp70.1 monoclonal antibody (FITC-conjugated for flow cytometry)
% membrane-positive cells [4]: 63.3% | % membrane-positive cells [5]: 56.6% | % membrane-positive cells [6]: 56.3% | % membrane-positive cells [7]: 63.3% | % membrane-positive cells [8]: 58% | % membrane-positive cells [9]: 55.5% | % membrane-positive cells [10]: 76.3% | % membrane-positive cells [11]: 55% | % membrane-positive cells [12]: 48% | % membrane-positive cells [13]: 59% | % membrane-positive cells [14]: 58.5% | % membrane-positive cells [15]: 51.2% | % membrane-positive cells [16]: 57.8% | % membrane-positive cells [17]: 68.1% | % membrane-positive cells [18]: 50% | % membrane-positive cells [19]: 46% | % membrane-positive cells [20]: 60%
